# Data as given in patent US20150044246A1 (IMMATICS BIOTECHNOLOGIES, published 2015).
# Target: T1, HLA-A*0201 (recombinant, refolded with peptide for tetramer production) (human)
# T1 construct: Monomers were biotinylated; also called HLA-A2
# Test: reconstitution of HLA-A*0201 tetramers with peptide
row,binding result,Binder
1,binds,YVDPVITSI (MHC class I ligand eluted from renal cell carcinoma tissue; also called met-proto-oncogene peptide) [YVDPVITSI derived from met proto-oncogene]
2,binds,SVASTITGV (MHC class I ligand eluted from renal cell carcinoma tissue; also called adipophilin peptide; ADFP peptide) [SVASTITGV from adipophilin]
3,binds,ALLNIKVKL (MHC class I ligand eluted from renal cell carcinoma tissue and identified by mass spectrometry; also called keratin 18 peptide; keratin 18-peptide) [ALLNIKVKL derived from keratin 18]
